Legend:
[1] = test system: EECM-BMEC-like cell monolayers; assay type: in vitro ADME, human
Protocol: EPCs purified as described above were plated on collagen IV (10 μg/ml)-coated plates in hECSR medium in the presence of 5 μM ROCK inhibitor Y-27632 of 10′000-20′000/cm^2 as described before (33). Twenty-four hours later, medium was changed to hECSR without ROCK inhibitor and then medium was changed every 2 days. Once the cells reached 100% confluency (FIG. 3B (i)), the cells were passaged using Accutase (Innovative Cell Technologies, San Diego, CA, USA). In detail, medium was removed and 1 ml of Accutase was added to the 6-well plate and cells were carefully observed under an inverted microscope (Zeiss Axiovert 25). Once endothelial cells started to become round (FIG. 3B (ii)), the endothelial cells were physically detached by tapping the 6-well plate (FIG. 3B (iii)). […] These cell densities were found optimal for achieving closed monolayers. Coating with collagen IV/fibronectin for Transwell filters was chosen as it was previously shown to be optimal for growing primary BMECs and for UMM-BMEC-like cells. […]
Bovine pericytes (15), the human brain pericyte cell line (HBPCT) (34), the human astrocyte cell line (hAST) (35), and hiPSC-derived astrocytes (iPS_AC) (29) were obtained and maintained as previously described. […] Transendothelial electrical resistance (TEER) was measured using a Volt-Ohm-Meter (Millicell ERS-2, MERSSTX01-electrode). […]

[2] = test system: UMM- and DMM-differentiated BMEC-like cells
Protocol: Unconditioned medium method (UMM) (14, 16) and defined medium method (DMM) (17) were slightly modified and used to differentiate brain microvascular endothelial-like cells (BMEC-like cells). In brief, hiPSCs were seeded onto a Matrigel-coated plate in mTeSR1 supplemented with 10 μM ROCK inhibitor Y-27632 (Selleckchem, Houston, TX, USA) for 24 hours (day −3 or day −4). […] At day 0, cells were induced to differentiate using specific medium for each method: For UMM, medium was switched to unconditioned medium (DMEM/F12 with 20% Knockout serum replacement, 1× non-essential amino acids, 0.5× Glutamax, and 0.1 mM β-mercaptoethanol) and changed every day for 6 days. For DMM, medium was switched to DeSR1 (DMEM/F12 with 1× non-essential amino acids, 0.5× Glutamax, and 0.1 mM β-mercaptoethanol) supplemented with 6 μM CHIR99021 (Selleckchem, Houston, TX, USA) and cultured for 24 hours. […]
(§1) Permeability of EC monolayers was assessed by measuring the clearance of sodium fluorescein (NaFl, 376.3 Da, Sigma-Aldrich) as previously described (16). […] Medium samples containing fluorescent tracer that had diffused across the monolayers were collected from the bottom well every 15 min for a total of 60 min, and fluorescence intensity was measured in a Tecan Infinite M1000 multi-well reader (Tecan Trading AG, Männedorf, Switzerland). […]

[3] = test system: hPSC-derived endothelial progenitors (Passage 1 ECs); test: Immunocytochemistry of Passage 1 ECs treated with Wnt ligands, CHIR or conditioned media; assay type: cell-based, human; conditions: for fraction of GLUT-1+ ECs vs control: Passage 1 ECs, 6 days, Wnt3a 20 ng/mL, Wnt7a 50 ng/mL, Wnt7b 50 ng/mL; for EC purity (proportion of ECs compared to SMLCs): Passage 1 cultures, 6 days treatment
Protocol: Collagen IV (Sigma-Aldrich) was dissolved in 0.5 mg/mL acetic acid to a final concentration of 1 mg/mL. Collagen IV-coated plates were prepared by diluting a volume of this stock solution 1:100 in water, adding the resulting solution to tissue culture plates, or #1.5 glass bottom plates (Cellvis, Sunnyvale, CA) for cells intended for confocal imaging (1 mL per well for 6-well plates, 0.5 mL per well for 12-well plates, 0.25 mL per well for 24-well plates), and incubating the plates for 1 h at RT. Collagen IV coating solution was removed and EPCs obtained as described above were suspended in hECSR medium and plated at approximately 3×10^4 cells/cm^2. In some experiments, cells were suspended in NR-CM or Astro-CM. In some experiments, ligands and small molecules were added to hECSR medium: CHIR 99021 (Tocris) was used at 4 μM except where indicated; DMSO (Sigma-Aldrich) was used as a vehicle control for CHIR; Wnt3a (R&D Systems) was used at 20 ng/mL; Wnt7a (Peprotech, Rocky Hill, NJ) was used at 50 ng/mL; Wnt7b (Abnova, Tapei, Taiwan) was used at 50 ng/mL; R-spondin 1 (Rspo1; Peprotech) was used at 50 ng/mL; doxycycline was used at 1, 2, or 4 μg/mL. The hECSR medium or CM, including any ligands or small molecules, was replaced every other day until confluent (typically 6 days). We denote this time point “Passage 1.”
Immunocytochemistry was performed in 24-well plates. Cells were washed once with 500 μL DPBS and fixed with 500 μL cold (−20° C.) methanol for 5 min, except cells intended for calponin/SM22a and CD31/Ki67 detection, which were fixed with 500 μL of 4% paraformaldehyde for 15 min. Cells were washed three times with 500 μL DPBS and blocked in 150 μL DPBS supplemented with 10% goat serum (Life Technologies) for 1 h at room temperature, except cells intended for calponin/SM22α detection, which were blocked and permeabilized in DPBS supplemented with 3% BSA and 0.1% Triton X-100, or cells intended for CD31/Ki67 detection, which were blocked and permeabilized in DPBS supplemented with 5% non-fat dry milk and 0.4% Triton X-100. Primary antibodies diluted in 150 μL of the above blocking solutions (see Table 6 for antibody information) were added to cells and incubated overnight at 4° C. on a rocking platform. Cells were washed three times with 500 μL DPBS. Secondary antibodies diluted in 150 μL of the above blocking solutions (see Table 6 for antibody information) were added to cells and incubated for 1 h at room temperature on a rocking platform, protected from light. Cells were washed three times with 500 μL DPBS, followed by 5 min incubation with 500 μL DPBS plus 4 μM Hoechst 33342 (Life Technologies). Images were acquired using an Eclipse Ti2-E epifluorescence microscope (Nikon, Tokyo, Japan) with a 20× objective or an A1R-Si+ confocal microscope (Nikon) with a 100× oil objective. Confocal images were acquired with 1 μm slice spacing.
Images were analyzed using FIJI (ImageJ) software. For epifluorescence images, 5 fields (20×) were analyzed per well, with 3-4 wells per treatment condition. For quantification of cell number, EC colonies were manually outlined, and the Analyze Particles function was used to estimate the number of nuclei within the EC colonies. Nuclei outside the EC colonies were manually counted. EC purity (% EC) was calculated as the number of nuclei within EC colonies relative to total nuclei. To estimate % GLUT-1^+ ECs, cells within the EC colonies with membrane-localized GLUT-1 immunoreactivity (e.g., arrowheads in FIG. 24B) were manually counted. To estimate % Ki67^+ ECs, cells within the EC colonies with at least one nuclear-localized Ki67 punctum were manually counted. For quantification of fluorescence intensity in epifluorescence images, EC colonies were manually outlined, and the Measure function was used to obtain the mean fluorescence intensity for each image channel (fluorophore). A cell-free area of the plate was similarly quantified for background subtraction. […]

Protocol for hiPSC-derived naïve ECs: CD34^+ CD31^+ endothelial progenitor cells (EPCs) were differentiated from hiPSCs as described (32, 33). In brief, hiPSCs were seeded onto a Matrigel-coated plate in mTeSR1 supplemented with 5 μM ROCK inhibitor Y-27632 for 24 hours (day −3). Seeding densities at day −3 were optimized between 16′000/cm^2 to 132′000/cm^2 depending on donor and passage in order to obtain high number of CD34^+ CD31^+ EPCs. At day 0 and day 1, medium was changed to LaSR basal medium (Advanced DMEM/F12, 2.5 mM GlutaMAX, and 60 μg/ml ascorbic acid) supplemented with 8 μM CHIR99021. At day 2, medium was switched to LaSR basal medium and changed every day for another 3 days. […] Purified EPCs were seeded onto collagen IV/fibronectin-coated Transwell filters at a density of 100′000/cm^2 or collagen-IV (10 μg/ml)-coated culture plates at a density of 10′000-20′000/cm^2 in hECSR medium and used for assay or further extended EC culture.
as §1

Molecule: O=C([O-])c1ccccc1-c1c2ccc(=O)cc-2oc2cc([O-])ccc12.[Na+].[Na+] [sodium fluorescein]
- lower permeability compared to naïve ECs [1]: ~10 fold
- PeNaFl, permeability to sodium fluorescein (hiPSC-derived naïve ECs): 2-10 ×10^−3 cm/min
- permeability to sodium fluorescein [2]: less than 0.6 ×10^−4 cm/min

B1: Wnt3a: ligand widely used to activate canonical Wnt/β-catenin signaling (R&D Systems) (protein, UniProt P56704 19-352, looked up)
Protein Wnt-3a: SYPIWWSLAVGPQYSSLGSQPILCASIPGLVPKQLRFCRNYVEIMPSVAEGIKIGIQECQHQFRGRRWNCTTVHDSLAIFGPVLDKATRESAFVHAIASAGVAFAVTRSCAEGTAAICGCSSRHQGSPGKGWKWGGCSEDIEFGGMVSREFADARENRPDARSAMNRHNNEAGRQAIASHMHLKCKCHGLSGSCEVKTCWWSQPDFRAIGDFLKDKYDSASEMVVEKHRESRGWVETLRPRYTYFKVPTERDLVYYEASPNFCEPNPETGSFGTRDRTCNVSSHGIDGCDLLCCGRGHNARAERRREKCRCVFHWCCYVSCQECTRVYDVHTCK
- fraction of GLUT-1+ ECs vs control [3]: significant increase
- EC purity (proportion of ECs compared to SMLCs) [3]: not Wnt3a

B2: Rspo1: potentiator of Wnt signaling (protein, UniProt Q2MKA7 21-263, looked up)
R-spondin-1: SRGIKGKRQRRISAEGSQACAKGCELCSEVNGCLKCSPKLFILLERNDIRQVGVCLPSCPPGYFDARNPDMNKCIKCKIEHCEACFSHNFCTKCKEGLYLHKGRCYPACPEGSSAANGTMECSSPAQCEMSEWSPWGPCSKKQQLCGFRRGSEERTRRVLHAPVGDHAACSDTKETRRCTVRRVPCPEGQKRRKGGQGRRENANRNLARKESKEAGAGSRRRKGQQQQQQQGTVGPLTSAGPA
- EC purity or expression of GLUT-1, claudin-5 or caveolin-1 ([3]; Rspo1 50 ng/mL in combination with Wnt ligands): did not affect

B3: Wnt7a: recombinant Wnt ligand (Peprotech) (protein, UniProt O00755 32-349, looked up)
Protein Wnt-7a: LGASIICNKIPGLAPRQRAICQSRPDAIIVIGEGSQMGLDECQFQFRNGRWNCSALGERTVFGKELKVGSREAAFTYAIIAAGVAHAITAACTQGNLSDCGCDKEKQGQYHRDEGWKWGGCSADIRYGIGFAKVFVDAREIKQNARTLMNLHNNEAGRKILEENMKLECKCHGVSGSCTTKTCWTTLPQFRELGYVLKDKYNEAVHVEPVRASRNKRPTFLKIKKPLSYRKPMDTDLVYIEKSPNYCEEDPVTGSVGTQGRACNKTAPQASGCDLMCCGRGYNTHQYARVWQCNCKFHWCCYVKCNTCSERTEMYTCK
- fraction of GLUT-1+ ECs vs control [3]: slightly increased
- EC purity (proportion of ECs compared to SMLCs) [3]: increased the proportion of ECs

B4: Wnt7b: recombinant Wnt ligand (Abnova) (protein, UniProt P56706 25-349, looked up)
Protein Wnt-7b: ALSSVVALGANIICNKIPGLAPRQRAICQSRPDAIIVIGEGAQMGINECQYQFRFGRWNCSALGEKTVFGQELRVGSREAAFTYAITAAGVAHAVTAACSQGNLSNCGCDREKQGYYNQAEGWKWGGCSADVRYGIDFSRRFVDAREIKKNARRLMNLHNNEAGRKVLEDRMQLECKCHGVSGSCTTKTCWTTLPKFREVGHLLKEKYNAAVQVEVVRASRLRQPTFLRIKQLRSYQKPMETDLVYIEKSPNYCEEDAATGSVGTQGRLCNRTSPGADGCDTMCCGRGYNTHQYTKVWQCNCKFHWCCFVKCNTCSERTEVFTCK
- fraction of GLUT-1+ ECs vs control [3]: not Wnt7b alone
